# Results: patent US20160250128A1 (INFINITEC ACTIVOS S L, published 2016)
# Biological target: Mushroom Tyrosinase (mushroom)
# Test: cell-based or functional assay
row,% INHIBITION TYROSINASE,Binder
1,31%,ISLLDAQS (HELM PEPTIDE1{[ac].I.S.L.L.D.[dA].Q.S.[am]}$$$$V2.0; SMILES CC[C@H](C)[C@H](NC(C)=O)C(=O)N[C@@H](CO)C(=O)N[C@@H](CC(C)C)C(=O)N[C@@H](CC(C)C)C(=O)N[C@@H](CC(=O)O)C(=O)N[C@H](C)C(=O)N[C@@H](CCC(N)=O)C(=O)N[C@@H](CO)C(N)=O) [Ac-Ile-Ser-Leu-Leu-Asp-(d)Ala-Gln-Ser-NH2]
2,39%,ISLLDAQS (HELM PEPTIDE1{[CCCCCCCCCCCCCCCC(=O)[*:2]].I.S.L.L.D.A.Q.S.[am]}$$$$V2.0; SMILES CCCCCCCCCCCCCCCC(=O)N[C@H](C(=O)N[C@@H](CO)C(=O)N[C@@H](CC(C)C)C(=O)N[C@@H](CC(C)C)C(=O)N[C@@H](CC(=O)O)C(=O)N[C@@H](C)C(=O)N[C@@H](CCC(N)=O)C(=O)N[C@@H](CO)C(N)=O)[C@@H](C)CC) [Palm-Ile-Ser-Leu-Leu-Asp-Ala-Gln-Ser-NH2]
3,28%,Ac-ISLLDAQS-NH2 [Ac-Ile-Ser-Leu-Leu-Asp-Ala-Gln-Ser-NH2]
4,48%,ISLLDAQS (HELM PEPTIDE1{[CCCCCCCCCCCCCCCC(=O)[*:2]].I.S.[dL].L.D.[dA].Q.S.[am]}$$$$V2.0; SMILES CCCCCCCCCCCCCCCC(=O)N[C@H](C(=O)N[C@@H](CO)C(=O)N[C@H](CC(C)C)C(=O)N[C@@H](CC(C)C)C(=O)N[C@@H](CC(=O)O)C(=O)N[C@H](C)C(=O)N[C@@H](CCC(N)=O)C(=O)N[C@@H](CO)C(N)=O)[C@@H](C)CC) [Palm-Ile-Ser-(d)Leu-Leu-Asp-(d)Ala-Gln-Ser-NH2]
5,42%,ISLLDAQS (HELM PEPTIDE1{[CCCCCCCCCCCCCCCC(=O)[*:2]].I.S.L.L.D.[dA].Q.S.[am]}$$$$V2.0; SMILES CCCCCCCCCCCCCCCC(=O)N[C@H](C(=O)N[C@@H](CO)C(=O)N[C@@H](CC(C)C)C(=O)N[C@@H](CC(C)C)C(=O)N[C@@H](CC(=O)O)C(=O)N[C@H](C)C(=O)N[C@@H](CCC(N)=O)C(=O)N[C@@H](CO)C(N)=O)[C@@H](C)CC) [Palm-Ile-Ser-Leu-Leu-Asp-(d)Ala-Gln-Ser-NH2]
6,40%,ISLLDAQS (HELM PEPTIDE1{[ac].I.S.[dL].L.D.[dA].Q.S.[am]}$$$$V2.0; SMILES CC[C@H](C)[C@H](NC(C)=O)C(=O)N[C@@H](CO)C(=O)N[C@H](CC(C)C)C(=O)N[C@@H](CC(C)C)C(=O)N[C@@H](CC(=O)O)C(=O)N[C@H](C)C(=O)N[C@@H](CCC(N)=O)C(=O)N[C@@H](CO)C(N)=O) [Ac-Ile-Ser-(d)Leu-Leu-Asp-(d)Ala-Gln-Ser-NH2]

# Biological target: T1, Melanocortin receptor 1 (MC1R) on melanocytes (human, UniProt Q01726 1-317)
# T1 construct: whole, on cells; also called MC1 receptor; MCR1 receptors on the melanocyte
# Test: flow cytometry, cell-associated fluorescence of peptide-targeted capsules (50 µg/mL, 37° C., 3 h) on melanocytes in a mixed cell population
# Protocol: Distinct types of cells were incubated with the capsules of the invention (50 μg/mL) which have been targeted with different peptides of formula (Ia) or non-targeted capsules (50 μg/mL) at 37° C. for 3 h. The peptides of formula (I) used to target the capsules in this example are peptides of formula Pamitoyl-Ser-Tyr-Ser-Nle-Glu-His-DPhe-Arg-(AA₁)-Gly-Lys-DPro-Val-NH—(CH₂)₃—(OCH₂CH₂)₂—CH₂—NH₂ wherein the nature of the aminoacid in position 9 (AA₁) is indicated in the first column of table 3. Cells were washed and stained with receptor-specific antibody or isotype control antibody to specifically detect distinct types of cells. Subsequently, cells were analyzed by flow cytometry on a FacsCalibur. The cell associated fluorescence was calculated by dividing the mean cell fluorescence intensity (mfi) for a given sample by the mfi of melanocytes incubated with targeted capsules, which was set at 100% (see FIG. 5 and table 4).
# T1 sequence (Q01726 whole entry): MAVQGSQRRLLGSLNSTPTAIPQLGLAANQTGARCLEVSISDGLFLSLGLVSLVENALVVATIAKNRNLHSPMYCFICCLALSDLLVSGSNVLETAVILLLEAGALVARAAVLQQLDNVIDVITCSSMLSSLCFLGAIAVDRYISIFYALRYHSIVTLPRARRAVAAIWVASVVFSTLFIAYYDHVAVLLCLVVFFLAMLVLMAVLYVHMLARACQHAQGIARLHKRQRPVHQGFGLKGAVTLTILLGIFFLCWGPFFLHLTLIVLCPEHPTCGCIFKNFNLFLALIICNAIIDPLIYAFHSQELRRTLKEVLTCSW
row,Cell specific binding (%),Binder
1,75%,"SYSXEHFRXGKPV (N-terminal palmitoyl; Nle at 4 (X); D-Phe at 7; 3-amino-3-(1-naphthyl) propionic acid at 9 (X); D-Pro at 12; C-terminal NH-(CH2)3-(OCH2CH2)2-CH2-NH2, Coupled to the outer surface of fluorescent polymer capsules in the assay; also called peptide of formula (I), AA1 = 3-amino-3-(1-naphthyl) propionic acid)"
2,80%,"SYSXEHFRXGKPV (N-terminal palmitoyl; Nle at 4 (X); D-Phe at 7; L-3,4-dihydroxyphenylalanine at 9 (X); D-Pro at 12; C-terminal NH-(CH2)3-(OCH2CH2)2-CH2-NH2, Coupled to the outer surface of fluorescent polymer capsules in the assay; also called peptide of formula (I), AA1 = L-3,4-dihydroxyphenylalanine)"
3,74%,"SYSXEHFRXGKPV (N-terminal palmitoyl; Nle at 4 (X); D-Phe at 7; 3-amino-3-(biphenyl) propionic acid at 9 (X); D-Pro at 12; C-terminal NH-(CH2)3-(OCH2CH2)2-CH2-NH2, Coupled to the outer surface of fluorescent polymer capsules in the assay; also called peptide of formula (I), AA1 = 3-amino-3-(biphenyl) propionic acid)"
4,58%,"SYSXEHFRHGKPV (N-terminal palmitoyl; Nle at 4 (X); D-Phe at 7; D-Pro at 12; C-terminal NH-(CH2)3-(OCH2CH2)2-CH2-NH2, Coupled to the outer surface of fluorescent polymer capsules in the assay; Stereochemistry of the residue at 9 is not specified; also called peptide of formula (I), AA1 = Histidine)"
5,80%,"SYSXEHFRYGKPV (N-terminal palmitoyl; Nle at 4 (X); D-Phe at 7; D-Pro at 12; C-terminal NH-(CH2)3-(OCH2CH2)2-CH2-NH2, Coupled to the outer surface of fluorescent polymer capsules in the assay; Stereochemistry of the residue at 9 is not specified; also called peptide of formula (I), AA1 = Tyrosine)"
6,85%,"SYSXEHFRFGKPV (N-terminal palmitoyl; Nle at 4 (X); D-Phe at 7; D-Pro at 12; C-terminal NH-(CH2)3-(OCH2CH2)2-CH2-NH2, Coupled to the outer surface of fluorescent polymer capsules in the assay; Stereochemistry of the residue at 9 is not specified; also called peptide of formula (I), AA1 = Phenylalanine)"
7,71%,"SYSXEHFRXGKPV (N-terminal palmitoyl; Nle at 4 (X); D-Phe at 7; 3-(2-Naphthyl)-D-alanine at 9 (X); D-Pro at 12; C-terminal NH-(CH2)3-(OCH2CH2)2-CH2-NH2, Coupled to the outer surface of fluorescent polymer capsules in the assay; also called peptide of formula (I), AA1 = 3-(2-Naphthyl)-D-alanine)"
8,73%,"SYSXEHFRXGKPV (N-terminal palmitoyl; Nle at 4 (X); D-Phe at 7; 5-hydroxytryptophan at 9 (X); D-Pro at 12; C-terminal NH-(CH2)3-(OCH2CH2)2-CH2-NH2, Coupled to the outer surface of fluorescent polymer capsules in the assay; also called peptide of formula (I), AA1 = 5-hydroxytryptophan)"
